Here are results for 41 sequences from the nanobody polyreactivity screen of Harvey et al. (2022).

This data set is described as follows: yeast display, Sf9 membrane polyspecificity reagent, FACS + sequencing; frameworks hold sequencing errors. In short, it runs like this: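 Sorting gates, low and high (top ~1%), were placed on anti-HA fluorescence to track expression and on streptavidin fluorescence to track reagent binding. A clone's polyreactivity label is taken from the gate it came out of. The reagent was 10% biotinylated, detergent-solubilized Sf9 membrane, applied for 1 hour at 4 °C to galactose-induced yeast display cells.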
As for “QVQLVESGGGLVQAGGSLRLSFAASGSTFYVYPMGWYRQAPGKERELVAAITDSGGSTYADSVKGRFTISRDNAMNTVYLQFNSLKPEASAVYADSTFYWYYYYWGQGPQVTVSS”, the “polyreactivity (PSR sort gate)” value is reported as “low polyreactivity”.

As for “QVQLVESGGGLVQAGGSLRLSFASSGRIFIAYAMGWYRQAPGIERELVAAITSGGGTYYADSVKGRFTISRDNAKNTVYLQMNSLKPVDTAVYYCAAACGRRYPDKFVAITPTYDFWGQGTQVTVSS”, the “polyreactivity (PSR sort gate)” value is reported as “low polyreactivity”.

“QVQLVESGGGLVQAGGSLRLSFPASGSTYFTYAMGWYRQAPGKERELVAAISWSGGTTYYADSVKGRFTISRDNAKNTVYLQMNSLKPEDTAVYYCASDRAGILKANDYWGKGTQVTVSS”: the “polyreactivity (PSR sort gate)” value is “low polyreactivity”.

“QVQLVESGGGLVQAGGSLRLSGAASGFIFGYYAMGWYRQAPGKERELVAAITSRGGSTYYADSVKGRFTISRDNAKNTVYLQMNSLKPEDTAVYYCAAGYNGYGLQYYYWGQGTQVTVSS”: the “polyreactivity (PSR sort gate)” value is given as “high polyreactivity”.

For the sequence “QVQLVESGGGLVQAGGSLRLSGAASGRIFYYNTMGWYRQAPGKEWEVVAAISSTAYTTYADSVKGRFTISRDNAKNTVYLQMYSLKPEDTAVYYCAAYRYSRYRQRYNYWGQGTQVTVSS”, the “polyreactivity (PSR sort gate)” value is “high polyreactivity”.

For “QVQLVESGGGLVQAGGSLRLSGAASGRTCGTNAMGWSRQAHGKERELVAAISSSGGSTYYADSVKGRFTISRDNAKNTVYLQMISQKPEDTAVYYCAQGWHRGVGFGYWGQGTQVTVSS”, the “polyreactivity (PSR sort gate)” value is reported as “high polyreactivity”.

As to “QVQLVESGGGLVQAGGSLRLSGAASGSTFGWYVMGWYRQAPGKERELVASITGSGGSTYYADSVKGRFTISRDHAKNTVYLQMNSLNPEDTAVYYCAAHTGWYDDWTHDSWGQGTQVTVSS”, the “polyreactivity (PSR sort gate)” value is recorded as “low polyreactivity”.

With “QVQLVESGGGLVQAGGSLRLSGAASGSTFTEYAMGWYRQAPGKEREFVAAITESGASTYYADSVKGRFTISRDNAKNTVYLQRNSLKPEDTAVYYCNAGYWRFIDSYDYWGQGTQVTVSS”, the “polyreactivity (PSR sort gate)” value is on record as “high polyreactivity”.

Take “QVQLVESGGGLVQAGGSLRLSGAAWSIFYLNAMGWYRKAPGKERELVAAISSAGSTYYADSVKGRFTISRDNAKNTVYLQMNSLKPEDTAVYYCAAYWYDSPGVTEIWYDYWGQGTQVTVSS”: the “polyreactivity (PSR sort gate)” value was “low polyreactivity”.

As for “QVQLVESGGGLVQAGGSLRLSGDASGRIFRLYAMGWYRQAPGKEREFVAAISRSGGRTYYADSVKGRFTISRDNAKNTVYLQMNSLKPEDTAVYYCAAVYRQCGDYYSRDYYWGQGTQVTVSS”, the “polyreactivity (PSR sort gate)” value was “high polyreactivity”.

Turning to “QVQLVESGGGLVQAGGSLRLSLAASGSIFRAYVMGWYRPAPGKERELVAAITRSGARTYYADSLKGRFTLSRDNAKNTVYLQMNSLKPEDTAVYYCAAETSGSQSKLYYYWGQGTQVTVSS”, the “polyreactivity (PSR sort gate)” value is given as “high polyreactivity”.

As for “QVQLVESGGGLVQAGGSLRLSRAASGSTLSLYAMGWYRQAPGKERELVAAITSSGGTYYADSVKGRFTISRDNAKNTVYLQMNSLKPEDTAVYYCAADPRSYFTSEYWGQGTQVTVSS”, the “polyreactivity (PSR sort gate)” value is reported as “high polyreactivity”.

Regarding “QVQLVESGGGLVQAGGSLRLSSAASGFIFDYSAMGWYRQAPGKERELVAAITRDGGGTYYADSVKGRFTISRDNANNTVYLQMNRLKPEDTAVYYCAARRAVRLYYWGQGTQVTVSA”, the “polyreactivity (PSR sort gate)” value was “high polyreactivity”.

With “QVQLVESGGGLVQAGGSLRLSSAASGFNSSRNAMGWYRQAPGKERELVATISSGGDTYYADSVKGRFTISRDNAKNTVYLQMNSLKPEDTAVYYCATDRAERTGYTRYVKTYNYWGQGTQVTVSS”, the “polyreactivity (PSR sort gate)” value is listed as “low polyreactivity”.

Consider “QVQLVESGGGLVQAGGSLRLSSAASGFTFDCNTMGWYRQAPGKERELVALISSTGGRTYYADSVQGRFSISRDNAKNTVYLQMNSLKPEDTAGSYCNKRRRNPVGYDYWGLGTQVTVSS”, for which the “polyreactivity (PSR sort gate)” value was “high polyreactivity”.

In the case of “QVQLVESGGGLVQAGGSLRLSSAASGFTFQGYVMGWYRQAPGKERELVAAISWSGGSTYYADSVKGRFTISRDTAKNTVYLQMNSLKPEDTAVYYCAAVTRFYTKYYWGQGTQVTVSS”, the “polyreactivity (PSR sort gate)” value is “high polyreactivity”.

With “QVQLVESGGGLVQAGGSLRLSSAASGFTFRAYAMGWYRQAPGKERELVAGISTRGGRTYYADSVKGRFTISRDNAKNTVYLQMNSLKPEDTAVYYCNAVDKTGKYDYWGQGPQVTVSS”, the “polyreactivity (PSR sort gate)” value is recorded as “high polyreactivity”.

“QVQLVESGGGLVQAGGSLRLSSAASGFTFRYYAMGWYRQAPGKERELVAAISWSGGRTYYADSVKGRFTISRDNAKYTVYLQMNILKPEDTAVYYCAADGYPYFYGDFDYSGQGTQVTVSS”: the “polyreactivity (PSR sort gate)” value is listed as “high polyreactivity”.

For “QVQLVESGGGLVQAGGSLRLSSAASGFTFSAYAMGWYRQAPGKEREMVATITSGGSTNYADSVKGRFTISRDNAKNTVYLQMNSLIPEDTAVYYCAADVGWLYYYPKYYYWGQGTQVTVSW”, the “polyreactivity (PSR sort gate)” value was “low polyreactivity”.

Turning to “QVQLVESGGGLVQAGGSLRLSSAASGFTLGYNAMGWYRQAPGKERELVAGITWSGGSTSYADSVKGRFTISRDNAKNTVYLQMNSLKPEDTAVYYCAKLRRYSGWLPWPYAYDYWGQGTQVTVSS”, the “polyreactivity (PSR sort gate)” value is “high polyreactivity”.

As to “QVQLVESGGGLVQAGGSLRLSSAASGGIFFIYVMGWYRQAPGKERELVAAISWSGGDTYYADSVQGRFTISRDNAKNTVYVQMNSLKPEDTAVYYCAARYYYLGTRYGYWGQGTQVTVSS”, the “polyreactivity (PSR sort gate)” value is “low polyreactivity”.

As to “QVQLVESGGGLVQAGGSLRLSSAASGGIFRYYAMGLYRQAPGKERELVAAITSSGTSTYYADSVKGRFTISRDYAKNTVYLQMNSLKPEDTAVYYCARVVRPTDGDYWGLGTQVTVSS”, the “polyreactivity (PSR sort gate)” value is “high polyreactivity”.

For the sequence “QVQLVESGGGLVQAGGSLRLSSAASGGILPIYAMGWYRQAPGKERELVATITGSGGGTYADSVKGRFTISRDNAKNTVYLQMNSLKPEDTAVYYCNADLGPVGHIDGYSYYDYDYWGQGTQVTVSS”, the “polyreactivity (PSR sort gate)” value was “low polyreactivity”.

For “QVQLVESGGGLVQAGGSLRLSSAASGIIFDYNAMGWYRQAPGKERELVAAISYSGDSTYYADSVKGRFTISRDNAKNTVYLQMNSLKPEDTAVYYCAAVIYFGWWYVYTEDDYWGQGTQVTVSS”, the “polyreactivity (PSR sort gate)” value is listed as “high polyreactivity”.

As for “QVQLVESGGGLVQAGGSLRLSSAASGIIFFFYAMGWYRQAPGKERELVAVITGSGDSTFYADSVKGRFTISRDNAKNTVYLQMNSLKPEDTAVYYCNARQVSGGYYYWGQGTQVTVSS”, the “polyreactivity (PSR sort gate)” value is “low polyreactivity”.

On to “QVQLVESGGGLVQAGGSLRLSSAASGIIFTYYAMGWYRQAPGKERELVAAISSGGGSTYYADSVKGRFTISRDNAKNTVYLQMNSLKPEDTAVYYCNADYYFVYTYLHDYWGQGTQVTVSS”, for which the “polyreactivity (PSR sort gate)” value was “low polyreactivity”.

With “QVQLVESGGGLVQAGGSLRLSSAASGITFIRYAMGWYSQAPGKERELVAAISSGGSTNYADSVKGRFTISRDNAKNTVYLQMNSLKPEDTAVYYCAARYYWSFAYDYWGQGTQVTVSS”, the “polyreactivity (PSR sort gate)” value is recorded as “low polyreactivity”.

As to “QVQLVESGGGLVQAGGSLRLSSAASGITLTANAMGCYRQAPGKERELVAAISRGGSTYYADSVKGRFTISRDNAKNTVYLQMNSLKPEDTAVYYCNKAGGYWYAKRDYDYWGQCTQVTVSS”, the “polyreactivity (PSR sort gate)” value is “high polyreactivity”.

Regarding “QVQLVESGGGLVQAGGSLRLSSAASGLIFWFYAMGWYRQAPGKERELVAAIDTDGGSTYYADSVKGRFTISRDNAKNTVYLQMNSLKPEDTAVYYCAATFAAYTQQTFYYWGQGTQVTVSS”, the “polyreactivity (PSR sort gate)” value is “low polyreactivity”.

On to “QVQLVESGGGLVQAGGSLRLSSAASGLNFQRNTMGWSRQAPVKERELVAAISRSGGSTYYADSVKGRFTISRDNAKNTVYLQMNSLKPEDTAVYYCAALIFRHRGKDDDYWGQGTQVTVSS”, for which the “polyreactivity (PSR sort gate)” value is “high polyreactivity”.

With “QVQLVESGGGLVQAGGSLRLSSAASGLTFLGYTMGWYRQAPGKARELVAAINYSGGSTYYADSVKGSFTISRDNAKNTVYLQMNSLKPEDPAVYYCAARRAVSGGVRMYYWGQGTQVTVSS”, the “polyreactivity (PSR sort gate)” value is given as “high polyreactivity”.

On to “QVQLVESGGGLVQAGGSLRLSSAASGLTFQEYAMGWYRQAPGKERELVAAISWSGGSTYYADSVKGRFTISRDNAKNTVYLQMNSLKPEDTAVYYCAAEAYEEYITGWYAYDYWGQGTQVTVSS”, for which the “polyreactivity (PSR sort gate)” value is given as “high polyreactivity”.

Take “QVQLVESGGGLVQAGGSLRLSSAASGLTFRYYALGWYRQAPGKERELVAAITRRGSTYYADSVKGRFTISRDNAKNTVYLQMNSLKPEDTAVYYCATVTGFHSSPLRDLDYWGQGTQVTVSS”: the “polyreactivity (PSR sort gate)” value is “high polyreactivity”.

Turning to “QVQLVESGGGLVQAGGSLRLSSAASGNIFYGYAIGWYRQAPGKERELVARINWSGTRTYYADSVKGRFTISRDNAKNTVYLQMNSLKPEDTAVYYCAADRYRKYYRRYYYWGQGTQVTVSS”, the “polyreactivity (PSR sort gate)” value is “high polyreactivity”.

On to “QVQLVESGGGLVQAGGSLRLSSAASGNIIKYYAMGCYRQEPGKERELVAAINWSGGSTYYADSVKGRFTISRDNAKNTVYLQMNSLKPEDTAVYYCNVFSSGYYLFDYWGQGTQVTVSS”, for which the “polyreactivity (PSR sort gate)” value is on record as “high polyreactivity”.

Consider “QVQLVESGGGLVQAGGSLRLSSAASGNTFDSKAMGWYRQAPGKERELVAGISQGDGSTYADSVKGRFTISRDNAKNTVYFQMNSLKPEDTAVYYCAADRDYIMDYWGQGTQVTVSS”, for which the “polyreactivity (PSR sort gate)” value is “high polyreactivity”.

As to “QVQLVESGGGLVQAGGSLRLSSAASGRIFAKYAMGWYRQAPGKERELVAAISWGGGSTYYADSVKGRFTISRDNAKNTVYLQMNSLKPEDTAVYYCAARIPKQRDVRGSGMNYWGQGTQVTVSS”, the “polyreactivity (PSR sort gate)” value is listed as “high polyreactivity”.

As to “QVQLVESGGGLVQAGGSLRLSSAASGRIFAVNAMGRYRQAPGKERELVASIRWSGGSTNYADSVKGRFTISRDNAKNTVYLQMNSLKPEDTAVYFCAAVIYLWGQGTQVTVSS”, the “polyreactivity (PSR sort gate)” value is on record as “high polyreactivity”.

With “QVQLVESGGGLVQAGGSLRLSSAASGRIFGTYAMGWYRQAPGKERELVAAITSGGRTYYADSVKGRFTISRDNAKNTVYLQMNSLKPEDNAVYYCARPSGYRKYYYWGQGTQVTVSS”, the “polyreactivity (PSR sort gate)” value was “high polyreactivity”.

For “QVQLVESGGGLVQAGGSLRLSSAASGRIFIGNAMGWYRQAPGKERELVAAISKGGGSTYYADSVKGRFTISRDNAKNTVYLQMNSLKPEDTAVYYCNKLRYPLLPPKYYYWGQGTQVTVSS”, the “polyreactivity (PSR sort gate)” value was “high polyreactivity”.

For “QVQLVESGGGLVQAGGSLRLSSAASGRIFLLNAMGWYRQAPGKERELVADISFNGGSTYYADSVKGRFTISRDNAKNSVYLQMNSLKPEDTAVYYCAVGSFGVSAYSYYYWGQGTQVTVSS”, the “polyreactivity (PSR sort gate)” value is “low polyreactivity”.
